Source: publication PMC6289849 (The Journal of steroid biochemistry and molecular biology, 2018)
Where two headings read alike, the source gives them in different places. One block for each molecule: values may come before it.

Legend:
[1] = molecular target: zebrafish Sts (zfSts, zfSts_tv1) (Danio rerio, UniProt A0ACD6B647); experiment: HPLC of released estrone; format: biochemical; conditions: 5 μM E1-sulfate, 28°C, 15 min, pH 7.0, 10 mM Ca2+; irreversible inhibitor
human STS [2] = molecular target: T1, human STS (Homo sapiens, UniProt P08842); conditions: 5 μM E1-sulfate, 37°C, 15 min, pH 7.0, 10 mM Ca2+; irreversible inhibitor
T1 sequence (P08842 22-583): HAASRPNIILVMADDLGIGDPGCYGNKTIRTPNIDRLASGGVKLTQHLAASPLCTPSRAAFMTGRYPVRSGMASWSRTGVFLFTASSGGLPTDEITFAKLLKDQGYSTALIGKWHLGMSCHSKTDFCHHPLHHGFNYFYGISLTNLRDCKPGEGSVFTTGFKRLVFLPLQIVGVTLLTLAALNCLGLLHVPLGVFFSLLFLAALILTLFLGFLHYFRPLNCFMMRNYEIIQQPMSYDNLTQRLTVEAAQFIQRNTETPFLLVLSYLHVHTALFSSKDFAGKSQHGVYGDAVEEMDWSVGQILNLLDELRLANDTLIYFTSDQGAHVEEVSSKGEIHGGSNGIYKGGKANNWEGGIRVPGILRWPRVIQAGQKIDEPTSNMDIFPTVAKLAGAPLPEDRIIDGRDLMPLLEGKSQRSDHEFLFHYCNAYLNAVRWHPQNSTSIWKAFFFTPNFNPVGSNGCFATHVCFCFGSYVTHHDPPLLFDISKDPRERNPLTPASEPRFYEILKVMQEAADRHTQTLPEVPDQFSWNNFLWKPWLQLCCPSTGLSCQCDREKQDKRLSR

human STS [3] = molecular target: T1, human STS; experiment: HPLC of released estrone; format: biochemical; conditions: 5 μM E1-sulfate, 37°C, 15 min, pH 7.0, 10 mM Ca2+; irreversible inhibitor
[4] = molecular target: zebrafish Sts (zfSts, zfSts_tv1) (Danio rerio, UniProt A0ACD6B647, I88V/L437F/N388K); experiment: HPLC of released estrone; format: biochemical; conditions: read-out: % inhibition at 0.1 μM
Sequence of zebrafish Sts (zfSts, zfSts_tv1) (Danio rerio, UniProt A0ACD6B647, I88V/L437F/N388K) (A0ACD6B647 21-584, stated change not applied): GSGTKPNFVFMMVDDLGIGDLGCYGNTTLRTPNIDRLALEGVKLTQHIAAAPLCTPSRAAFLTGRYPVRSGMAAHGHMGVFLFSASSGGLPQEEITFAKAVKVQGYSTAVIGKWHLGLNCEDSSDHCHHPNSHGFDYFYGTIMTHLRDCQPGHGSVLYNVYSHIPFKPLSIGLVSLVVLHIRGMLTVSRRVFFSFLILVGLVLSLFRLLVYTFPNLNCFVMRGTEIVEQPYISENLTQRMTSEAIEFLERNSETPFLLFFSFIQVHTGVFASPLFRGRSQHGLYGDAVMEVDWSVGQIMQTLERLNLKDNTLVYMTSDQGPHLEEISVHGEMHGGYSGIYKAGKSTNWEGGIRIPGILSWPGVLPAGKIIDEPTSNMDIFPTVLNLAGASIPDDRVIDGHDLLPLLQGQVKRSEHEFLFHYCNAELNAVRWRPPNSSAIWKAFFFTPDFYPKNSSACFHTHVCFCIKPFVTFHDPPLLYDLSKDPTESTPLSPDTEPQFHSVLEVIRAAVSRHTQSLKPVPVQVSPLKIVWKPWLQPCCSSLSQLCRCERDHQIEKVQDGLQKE

[5] = test system: CC(=O)[C@H]1CC[C@H]2[C@@H]3CC=C4C[C@@H](OS(=O)(=O)O)CC[C@]4(C)[C@H]3CC[C@]12C; experiment: cells, lysate or membranes; conditions: 28°C, pH 7.0 Hepes, 10 mM Ca2+, 1 mM DTT, labelled compound
[6] = test system: CC(C)CCC[C@@H](C)[C@H]1CC[C@H]2[C@@H]3CC=C4C[C@@H](OS(=O)(=O)O)CC[C@]4(C)[C@H]3CC[C@]12C; experiment: cells, lysate or membranes; conditions: 28°C, pH 7.0 Hepes, 10 mM Ca2+, 1 mM DTT, labelled compound
[7] = test system: C[C@]12CC[C@@H]3c4ccc(OS(=O)(=O)O)cc4CC[C@H]3[C@@H]1CCC2=O; experiment: cells, lysate or membranes; conditions: 28°C, pH 7.0 Hepes, 10 mM Ca2+, 1 mM DTT, labelled compound
[8] = test system: [H][C@@]12CC=C3C[C@@H](OS(=O)(=O)O)CC[C@]3(C)[C@@]1([H])CC[C@]1(C)C(=O)CC[C@@]21[H]; experiment: cells, lysate or membranes; conditions: 28°C, pH 7.0 Hepes, 10 mM Ca2+, 1 mM DTT, labelled compound
[9] = test system: [H][C@@]12CCc3cc(OS(=O)(=O)O)ccc3[C@@]1([H])CC[C@]1(C)[C@@H](O)CC[C@@]21[H]; experiment: cells, lysate or membranes; conditions: 28°C, pH 7.0 Hepes, 10 mM Ca2+, 1 mM DTT, labelled compound

Sequence of zebrafish Sts (zfSts, zfSts_tv1) (Danio rerio, UniProt A0ACD6B647) (A0ACD6B647 21-584): as the sequence (A0ACD6B647 21-584, stated change not applied) above

Molecule: C[C@]12CC[C@@H]3c4ccc(OS(N)(=O)=O)cc4CC[C@H]3[C@@H]1CCC2=O [EMATE]
- % inhibition at 0.1 μM [1]: EMATE also inhibited the activity zebrafish Sts_tv1 and human STS
- % inhibition at 0.1 μM (human STS [2]): EMATE also inhibited the activity zebrafish Sts_tv1 and human STS

- % inhibition at 0.1 μM (human STS [3]): 93%
- inhibition at 0.1 µM [4]: 88.3%
Molecule: NS(=O)(=O)Oc1ccc2c3c(c(=O)oc2c1)CCCCC3 [STX64]

Molecule: zebrafish Sts (zfSts, zfSts_tv1) (Danio rerio; I88V/L437F/N388K)
- Km [5]: 0.18 ± 0.01 µM
- Vmax [5]: 0.000104 µmol/min/mg
- Km [6]: 0.62 ± 0.06 µM
- Vmax [6]: 8.12e-05 µmol/min/mg
- Km [7]: 4.32 ± 0.49 µM
- Vmax [7]: 0.00126 µmol/min/mg
- Km [8]: 19.38 ± 3.07 µM
- Vmax [8]: 0.000374 µmol/min/mg
- Km [9]: 2.07 ± 0.29 µM
- Vmax [9]: 0.00107 µmol/min/mg
